In the supplement of paper PMC10065799, “High-throughput profiling of sequence recognition by tyrosine kinases and SH2 domains using bacterial peptide display” (eLife, 2023):

The sequences below were run on Fer (mouse) (assay: phosphorylation enrichment, bacterial display (enrichment ratio); higher = better substrate or ligand; peptides without Tyr show the background).
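Further: 11-residue human phosphosite peptides and single-mutation variants displayed on the E. coli surface, counted by deep sequencing, each peptide's frequency after selection divided by its frequency in the unselected input library; frequency after pTyr selection over input frequency; kinase dosed for 20-30% of maximal phosphorylation in three min.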

Row | Sequence | phosphorylation enrichment
1 | AKFPSYEKNKK [FOXL2_Y91_F90S] | 0.49
2 | ETLLYYGCRRS [POR_Y564] | 0.638
3 | QTEAPYRFIFM [PTPN11_Y511_Q510P_YF] | 4.48
4 | SFPSYYTSHVQ [NEFL_Y443] | 0.759
5 | CKRQFYLYKGK [RSPO4_Y112] | 0.431
6 | MKGEFYRFLAE [YWHAG_Y131_D129E_YF] | 0.4
7 | QTWKTYVRHQQ [SFI1_Y164_Q167H] | 0.465
8 | KPGVNYYFQVS | 0.522
9 | KNRDVSSSDYF [USP24_Y2134_Y2134S] | 0.363
10 | YSIDYYRVGGH [NTRK2_Y707_T704I] | 0.514
11 | EVVGRYSVHFA [MLH1_Y183_N187Y_YF] | 0.424
12 | DRLPSYLDKVR [KRT12_Y139_A137P] | 0.436
13 | VDTFWYKLLKR [EPM2A_Y86_F88L] | 0.456
14 | PEADKYRLPYA [FGG_Y300_T303P] | 0.521
15 | LAVNPYGPPDP | 0.44
16 | CTLLPYYSARV [DGKE_Y269] | 0.497
17 | FVKEPYIQSRF [HIPK4_Y175_YF] | 0.43

Row | Sequence | phosphorylation enrichment
18 | EKKKKYMLPLD [DNM2_Y563_E560K] | 0.502
19 | SHTPSYCDEWL [RITA1_Y109_S113W] | 0.57
20 | GKPENYRRLDI [VHL_Y175_V170G] | 0.301
21 | NKYVAYIESQG [KDM4B_Y34] | 0.422
22 | VNTMLYEKFTF [TEK_Y1108_T1106M_YF] | 13.7
23 | GFILMYDITNK [RAB3C_Y110_E115K] | 0.724
24 | RHSGSYFVTSV [APC_Y2838_L2839F] | 0.444
25 | FRASFYRKGGC [ALK_Y1283_YF] | 0.466
26 | SLFQFYFQQKG [CHKB_Y381_R377L] | 0.612
27 | LWKWRYEELKE [CCDC102B_Y299_K298R] | 0.771
28 | KPRKPYTIKKP [BRD2_Y715] | 1.19
29 | GEFFRYLAEVA [YWHAG_Y133_D129E_YF] | 0.51
30 | NLMPAYHKCIQ [CYP21A2_Y190_Y191H] | 0.507
31 | GESQGYDIMEP [MSH2_Y863] | 0.441
32 | KFSNQYKATIG [RAB7A_Y37] | 0.463
33 | TDIVAYSGRVQ [SPTBN2_Y477] | 0.264

The sequences below were run against Jak2 (UniProt O60674) in the same assay as above.
Jak2, sequence (O60674 whole entry, looked up): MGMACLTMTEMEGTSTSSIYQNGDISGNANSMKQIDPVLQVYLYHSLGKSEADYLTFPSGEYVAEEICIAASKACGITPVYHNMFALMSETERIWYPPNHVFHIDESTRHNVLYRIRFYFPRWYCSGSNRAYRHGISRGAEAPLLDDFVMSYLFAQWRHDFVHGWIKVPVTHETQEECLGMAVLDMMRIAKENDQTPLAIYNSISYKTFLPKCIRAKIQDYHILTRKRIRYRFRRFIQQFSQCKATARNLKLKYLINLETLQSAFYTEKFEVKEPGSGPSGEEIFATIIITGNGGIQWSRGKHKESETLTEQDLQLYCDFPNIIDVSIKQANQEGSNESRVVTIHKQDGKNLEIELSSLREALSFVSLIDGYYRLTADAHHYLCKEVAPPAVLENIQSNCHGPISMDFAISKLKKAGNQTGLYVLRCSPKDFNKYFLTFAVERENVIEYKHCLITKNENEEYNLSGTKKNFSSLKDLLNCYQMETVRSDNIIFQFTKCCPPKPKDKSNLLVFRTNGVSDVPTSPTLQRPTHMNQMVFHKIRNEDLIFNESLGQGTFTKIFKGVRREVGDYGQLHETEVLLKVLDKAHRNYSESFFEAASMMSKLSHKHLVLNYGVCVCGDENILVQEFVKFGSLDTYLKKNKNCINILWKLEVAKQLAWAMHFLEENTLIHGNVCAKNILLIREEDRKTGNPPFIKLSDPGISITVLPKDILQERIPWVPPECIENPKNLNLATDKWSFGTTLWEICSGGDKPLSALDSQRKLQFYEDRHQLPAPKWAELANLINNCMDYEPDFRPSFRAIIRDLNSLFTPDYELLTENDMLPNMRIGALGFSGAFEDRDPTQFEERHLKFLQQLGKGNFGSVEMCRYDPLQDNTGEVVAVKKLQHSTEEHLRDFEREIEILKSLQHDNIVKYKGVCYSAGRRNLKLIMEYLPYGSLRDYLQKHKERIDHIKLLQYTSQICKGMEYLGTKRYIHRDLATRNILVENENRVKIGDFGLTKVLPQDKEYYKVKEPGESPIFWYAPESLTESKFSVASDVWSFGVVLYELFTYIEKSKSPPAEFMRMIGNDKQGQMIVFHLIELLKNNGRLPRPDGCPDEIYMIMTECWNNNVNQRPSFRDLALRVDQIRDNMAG

Row | Sequence | phosphorylation enrichment
34 | AKFPSYEKNKK [FOXL2_Y91_F90S] | 1.07
35 | ETLLYYGCRRS [POR_Y564] | 1.67
36 | QTEAPYRFIFM [PTPN11_Y511_Q510P_YF] | 1.55
37 | SFPSYYTSHVQ [NEFL_Y443] | 4.39
38 | CKRQFYLYKGK [RSPO4_Y112] | 0.746
39 | MKGEFYRFLAE [YWHAG_Y131_D129E_YF] | 0.907
40 | QTWKTYVRHQQ [SFI1_Y164_Q167H] | 1.3
41 | KPGVNYYFQVS | 1.44
42 | KNRDVSSSDYF [USP24_Y2134_Y2134S] | 0.578
43 | YSIDYYRVGGH [NTRK2_Y707_T704I] | 6.54
44 | EVVGRYSVHFA [MLH1_Y183_N187Y_YF] | 0.692
45 | DRLPSYLDKVR [KRT12_Y139_A137P] | 0.616
46 | VDTFWYKLLKR [EPM2A_Y86_F88L] | 0.937
47 | PEADKYRLPYA [FGG_Y300_T303P] | 1.33
48 | LAVNPYGPPDP | 0.709
49 | CTLLPYYSARV [DGKE_Y269] | 0.937
50 | FVKEPYIQSRF [HIPK4_Y175_YF] | 0.607

Row | Sequence | phosphorylation enrichment
51 | EKKKKYMLPLD [DNM2_Y563_E560K] | 0.567
52 | SHTPSYCDEWL [RITA1_Y109_S113W] | 0.97
53 | GKPENYRRLDI [VHL_Y175_V170G] | 0.539
54 | NKYVAYIESQG [KDM4B_Y34] | 0.827
55 | VNTMLYEKFTF [TEK_Y1108_T1106M_YF] | 0.917
56 | GFILMYDITNK [RAB3C_Y110_E115K] | 1.83
57 | RHSGSYFVTSV [APC_Y2838_L2839F] | 0.89
58 | FRASFYRKGGC [ALK_Y1283_YF] | 0.683
59 | SLFQFYFQQKG [CHKB_Y381_R377L] | 1.43
60 | LWKWRYEELKE [CCDC102B_Y299_K298R] | 2.73
61 | KPRKPYTIKKP [BRD2_Y715] | 2.95
62 | GEFFRYLAEVA [YWHAG_Y133_D129E_YF] | 1.02
63 | NLMPAYHKCIQ [CYP21A2_Y190_Y191H] | 0.969
64 | GESQGYDIMEP [MSH2_Y863] | 0.827
65 | KFSNQYKATIG [RAB7A_Y37] | 0.538
66 | TDIVAYSGRVQ [SPTBN2_Y477] | 1.48

These sequences were tested against Fyn (UniProt P06241) in the same assay as above.
Fyn, sequence (P06241 whole entry, looked up): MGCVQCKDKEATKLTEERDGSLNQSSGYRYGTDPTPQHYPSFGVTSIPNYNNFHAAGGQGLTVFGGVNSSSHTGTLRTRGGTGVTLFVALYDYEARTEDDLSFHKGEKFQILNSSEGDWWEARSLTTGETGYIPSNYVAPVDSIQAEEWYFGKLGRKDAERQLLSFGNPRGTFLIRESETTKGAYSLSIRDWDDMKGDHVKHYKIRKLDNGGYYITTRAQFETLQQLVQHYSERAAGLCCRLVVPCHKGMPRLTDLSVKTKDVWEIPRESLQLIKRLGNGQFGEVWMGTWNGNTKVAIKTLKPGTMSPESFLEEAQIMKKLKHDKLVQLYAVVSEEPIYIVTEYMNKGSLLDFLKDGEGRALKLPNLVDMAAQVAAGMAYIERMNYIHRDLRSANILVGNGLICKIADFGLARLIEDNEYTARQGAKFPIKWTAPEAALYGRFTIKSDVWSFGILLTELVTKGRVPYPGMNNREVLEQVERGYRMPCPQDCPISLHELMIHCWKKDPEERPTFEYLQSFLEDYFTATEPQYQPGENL

Row | Sequence | phosphorylation enrichment
67 | AKFPSYEKNKK [FOXL2_Y91_F90S] | 0.423
68 | ETLLYYGCRRS [POR_Y564] | 1.89
69 | QTEAPYRFIFM [PTPN11_Y511_Q510P_YF] | 0.637
70 | SFPSYYTSHVQ [NEFL_Y443] | 0.59
71 | CKRQFYLYKGK [RSPO4_Y112] | 0.432
72 | MKGEFYRFLAE [YWHAG_Y131_D129E_YF] | 0.392
73 | QTWKTYVRHQQ [SFI1_Y164_Q167H] | 0.476
74 | KPGVNYYFQVS | 0.573
75 | KNRDVSSSDYF [USP24_Y2134_Y2134S] | 0.476
76 | YSIDYYRVGGH [NTRK2_Y707_T704I] | 1.31
77 | EVVGRYSVHFA [MLH1_Y183_N187Y_YF] | 0.579
78 | DRLPSYLDKVR [KRT12_Y139_A137P] | 0.454
79 | VDTFWYKLLKR [EPM2A_Y86_F88L] | 0.372
80 | PEADKYRLPYA [FGG_Y300_T303P] | 0.467
81 | LAVNPYGPPDP | 0.454
82 | CTLLPYYSARV [DGKE_Y269] | 0.464
83 | FVKEPYIQSRF [HIPK4_Y175_YF] | 0.374

Row | Sequence | phosphorylation enrichment
84 | EKKKKYMLPLD [DNM2_Y563_E560K] | 0.604
85 | SHTPSYCDEWL [RITA1_Y109_S113W] | 0.473
86 | GKPENYRRLDI [VHL_Y175_V170G] | 0.295
87 | NKYVAYIESQG [KDM4B_Y34] | 0.407
88 | VNTMLYEKFTF [TEK_Y1108_T1106M_YF] | 5.93
89 | GFILMYDITNK [RAB3C_Y110_E115K] | 0.529
90 | RHSGSYFVTSV [APC_Y2838_L2839F] | 0.598
91 | FRASFYRKGGC [ALK_Y1283_YF] | 0.618
92 | SLFQFYFQQKG [CHKB_Y381_R377L] | 0.397
93 | LWKWRYEELKE [CCDC102B_Y299_K298R] | 0.629
94 | KPRKPYTIKKP [BRD2_Y715] | 0.608
95 | GEFFRYLAEVA [YWHAG_Y133_D129E_YF] | 0.575
96 | NLMPAYHKCIQ [CYP21A2_Y190_Y191H] | 0.519
97 | GESQGYDIMEP [MSH2_Y863] | 0.454
98 | KFSNQYKATIG [RAB7A_Y37] | 0.41
99 | TDIVAYSGRVQ [SPTBN2_Y477] | 1.05

The sequences below were run on c-Src in the same assay as above.

Row | Sequence | phosphorylation enrichment
100 | AKFPSYEKNKK [FOXL2_Y91_F90S] | 0.562
101 | ETLLYYGCRRS [POR_Y564] | 3.48
102 | QTEAPYRFIFM [PTPN11_Y511_Q510P_YF] | 0.777
103 | SFPSYYTSHVQ [NEFL_Y443] | 0.737
104 | CKRQFYLYKGK [RSPO4_Y112] | 0.312
105 | MKGEFYRFLAE [YWHAG_Y131_D129E_YF] | 0.382
106 | QTWKTYVRHQQ [SFI1_Y164_Q167H] | 0.769
107 | KPGVNYYFQVS | 0.5
108 | KNRDVSSSDYF [USP24_Y2134_Y2134S] | 0.543
109 | YSIDYYRVGGH [NTRK2_Y707_T704I] | 2.15
110 | EVVGRYSVHFA [MLH1_Y183_N187Y_YF] | 0.436
111 | DRLPSYLDKVR [KRT12_Y139_A137P] | 0.479
112 | VDTFWYKLLKR [EPM2A_Y86_F88L] | 0.347
113 | PEADKYRLPYA [FGG_Y300_T303P] | 0.488
114 | LAVNPYGPPDP | 0.523
115 | CTLLPYYSARV [DGKE_Y269] | 0.579
116 | FVKEPYIQSRF [HIPK4_Y175_YF] | 0.418

Row | Sequence | phosphorylation enrichment
117 | EKKKKYMLPLD [DNM2_Y563_E560K] | 0.496
118 | SHTPSYCDEWL [RITA1_Y109_S113W] | 0.494
119 | GKPENYRRLDI [VHL_Y175_V170G] | 0.353
120 | NKYVAYIESQG [KDM4B_Y34] | 0.437
121 | VNTMLYEKFTF [TEK_Y1108_T1106M_YF] | 6.07
122 | GFILMYDITNK [RAB3C_Y110_E115K] | 0.575
123 | RHSGSYFVTSV [APC_Y2838_L2839F] | 0.785
124 | FRASFYRKGGC [ALK_Y1283_YF] | 0.586
125 | SLFQFYFQQKG [CHKB_Y381_R377L] | 0.425
126 | LWKWRYEELKE [CCDC102B_Y299_K298R] | 0.715
127 | KPRKPYTIKKP [BRD2_Y715] | 0.75
128 | GEFFRYLAEVA [YWHAG_Y133_D129E_YF] | 0.442
129 | NLMPAYHKCIQ [CYP21A2_Y190_Y191H] | 0.501
130 | GESQGYDIMEP [MSH2_Y863] | 0.419
131 | KFSNQYKATIG [RAB7A_Y37] | 0.485
132 | TDIVAYSGRVQ [SPTBN2_Y477] | 1.05
